# Source: patent US20250011410A1 (INVETX, published 2025)
# Values joined by “and” are separate entries in the source; they are usually repeats but may differ in a detail not shown here. Identical values can stand only once.
# Target: T1, canine NGF tagged at the C-terminus with the Flag tag (canine, UniProt A0A8I3PYI3 122-241)
# T1 construct: mature; Expressed with baculovirus technology; also called feline NGF (processed form identical)
# Test: SPR off-rate assay, Fab-SASA on BSA chip
# Target sequence in this assay (A0A8I3PYI3 entry or part of it): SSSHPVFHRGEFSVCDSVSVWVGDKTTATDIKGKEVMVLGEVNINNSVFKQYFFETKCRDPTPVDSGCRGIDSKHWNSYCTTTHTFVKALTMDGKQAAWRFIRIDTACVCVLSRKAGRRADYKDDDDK
Binder,Kd,Ratio (KD) WT/clones,koff,kon,Ratio (kd) WT/clones
"felinized clone 101 Fab-SASA (wild-type) (Fab, V domains shown, not shown: small tags and cut ends) VH: DVQLVESGGDLVKPGGSLRLTCVASGLSLTSSSMSWVRQAPGKGLQWVSTIYSNGGTYYTDSVKGRFTISKDNAENTLYLQMNNLKTEDTATYYCASIYYYDADYLHWYFDFWGQGALVTVSS VL: EIQMTQSPTSLSASVGDRVTITCRASEGISNNLSWYQQTPGKAPKLLIYATSNLHSGVPSRFSGSGSGTDFTLTISSLQPEDFATYYCQQGYKWPLTFGGGTKLEITR",3.15 nM and 3.78 nM and 3.47 nM,0,0.00179 s⁻¹ and 0.00158 s⁻¹ and 0.00169 s⁻¹,569000 M⁻¹ s⁻¹ and 419000 M⁻¹ s⁻¹ and 494000 M⁻¹ s⁻¹,
"AHF17608 (Fab, V domains shown, not shown: small tags and cut ends) VH: DVQLVESGGDLVKPGGSLRLTCVASGLSLTSSSMVWVRQAPGKGLQWVSTIYSNRGTYYTDSVKGRFTISKDNAENTLYLQMNNLKTEDTATYYCASIYYYDADYLHWYFDFWGQGALVTVSS VL: EIQMTQSPTSLSASVGDRVTITCRASEGIANNLSWYQQTPGKAPKLLIYATSVLHSGVPSRFSGSGSGTDFTLTISSLQPEDFATYYCQQGYKWPLTFGGGTKLEITR",≤ 0.00439 nM,788,≤ 1e-06 s⁻¹,228000 M⁻¹ s⁻¹,1680
"AHF17610 (Fab, V domains shown, not shown: small tags and cut ends) VH: DVQLVESGGDLVKPGGSLRLTCVASGLSLTSSSMVWVRQAPGKGLQWVSTIYSNRGTYYTDSVKGRFTISKDNAENTLYLQMNNLKTEDTATYYCASIYYYDADYLHWYFDFWGQGALVTVSS VL: EIQMTQSPTSLSASVGDRVTITCRASEGIANNLSWYQQTPGKAPKLLIYATSNLHSGVPSRFSGSGSGTDFTLTISSLQPEDFATYYCQQGYKWPLTFGGGTKLEITR",≤ 0.00549 nM,629,≤ 1e-06 s⁻¹,182000 M⁻¹ s⁻¹,1680
"AHF17607 (Fab, V domains shown, not shown: small tags and cut ends) VH: DVQLVESGGDLVKPGGSLRLTCVASGLSLTSSSMVWVRQAPGKGLQWVSTIYSNRGTYYTDSVKGRFTISKDNAENTLYLQMNNLKTEDTATYYCASIYYYDADYLHWYFDEWGQGALVTVSS VL: EIQMTQSPTSLSASVGDRVTITCRASEGISNNLSWYQQTPGKAPKLLIYATSILHSGVPSRFSGSGSGTDFTLTISSLQPEDFATYYCQQGYKWPLTFGGGTKLEITR",≤ 0.00442 nM,781,≤ 1e-06 s⁻¹,226000 M⁻¹ s⁻¹,1680
"AHF17609 (Fab, V domains shown, not shown: small tags and cut ends) VH: DVQLVESGGDLVKPGGSLRLTCVASGLSLTSSSMVWVRQAPGKGLQWVSTIYSNRGTYYTDSVKGRFTISKDNAENTLYLQMNNLKTEDTATYYCASIYYYDADYLHWYFDFWGQGALVTVSS VL: EIQMTQSPTSLSASVGDRVTITCRASEGIANNLSWYQQTPGKAPKLLIYATSILHSGVPSRFSGSGSGTDFTLTISSLQPEDFATYYCQQGYKWPLTFGGGTKLEITR",≤ 0.00439 nM,788,≤ 1e-06 s⁻¹,228000 M⁻¹ s⁻¹,1680

# Target: T1, canine NGF tagged at the C-terminus …
# Test: SPR, IgG amine-coupled to HC30M chip, NGF analyte
Binder,Kd [nM],koff [s⁻¹],kon [M⁻¹ s⁻¹]
"felinized clone 101 (IgG) (antibody, V domains shown) VH: DVQLVESGGDLVKPGGSLRLTCVASGLSLTSSSMSWVRQAPGKGLQWVSTIYSNGGTYYTDSVKGRFTISKDNAENTLYLQMNNLKTEDTATYYCASIYYYDADYLHWYFDFWGQGALVTVSS VL: EIQMTQSPTSLSASVGDRVTITCRASEGISNNLSWYQQTPGKAPKLLIYATSNLHSGVPSRFSGSGSGTDFTLTISSLQPEDFATYYCQQGYKWPLTFGGGTKLEIT",2.1,0.00022,110000
"SC-184_102 (antibody, IgG1a, V domains shown) VH: DVQLVESGGDLVKPGGSLRLTCVASGLSLTSNSMSWVRQAPGKGLQWVSTIWSNGGTYYTDSVKGRFTISKDNAENTLYLQMNNLKTEDTATYYCASIYYYEAEYLHWYFDFWGQGALVTVSS VL: EIQMTQSPTSLSASVGDRVTITCRASKGISNNLSWYQQTPGKAPKLLIYAQSNLHSGVPSRFSGSGSGTDFTLTISSLQPEDFATYYCQQGYKWPLTFGGGTKLEIT",,,210000
"SC-184_110 (antibody, IgG1a, V domains shown) VH: DVQLVESGGDLVKPGGSLRLTCVASGLSLTSASMSWVRQAPGKGLQWVSTIYSNGGTYYTDSVKGRFTISKDNAENTLYLQMNNLKTEDTATYYCASIYYYEAEYLHWYFDFWGQGALVTVSS VL: EIQMTQSPTSLSASVGDRVTITCRASEGISKNLSWYQQTPGKAPKLLIYATDNLHSGVPSRFSGSGSGTDFTLTISSLQPEDFATYYCQQGWKWPLTFGGGTKLEIT",0.36,3.6e-05,160000
"SC-184_76 (antibody, IgG1a, V domains shown) VH: DVQLVESGGDLVKPGGSLRLTCVASGLSLTSDSMSWVRQAPGKGLQWVSTLWSNGGTYYTDSVKGRFTISKDNAENTLYLQMNNLKTEDTATYYCASIYYYEADYLHWYFDFWGQGALVTVSS VL: EIQMTQSPTSLSASVGDRVTITCRASEGIANNLSWYQQTPGKAPKLLIYATSNLHSGVPSRFSGSGSGTDFTLTISSLQPEDFATYYCQQGFKWPLTFGGGTKLEIT [SC-184_76, listing 1 of 2 here]",0.25,6.9e-05,270000

# Target: T1, canine NGF tagged at the C-terminus …
# Test: SPR off-rate screen, Fab-SASA on BSA chip
# Target sequence in this assay (A0A8I3PYI3 entry or part of it): as the sequence (A0A8I3PYI3 entry or part of it) above
Binder,Kd,Ratio WT-kd/clone-kd,koff,kon
"felinized clone 101 Fab-SASA (wild-type) (Fab, V domains shown, not shown: small tags and cut ends) VH: DVQLVESGGDLVKPGGSLRLTCVASGLSLTSSSMSWVRQAPGKGLQWVSTIYSNGGTYYTDSVKGRFTISKDNAENTLYLQMNNLKTEDTATYYCASIYYYDADYLHWYFDFWGQGALVTVSS VL: EIQMTQSPTSLSASVGDRVTITCRASEGISNNLSWYQQTPGKAPKLLIYATSNLHSGVPSRFSGSGSGTDFTLTISSLQPEDFATYYCQQGYKWPLTFGGGTKLEITR",2.62 nM and 2.65 nM and 2.69 nM,1,0.000939 s⁻¹ and 0.000943 s⁻¹ and 0.000947 s⁻¹,359000 M⁻¹ s⁻¹ and 355000 M⁻¹ s⁻¹ and 351000 M⁻¹ s⁻¹

# Target: T2, canine NGF tagged at the C-terminus with the Flag tag (canine, UniProt A0A8I3PYI3 122-241)
# T2 construct: mature; 'mature' rests on the words 'processed form'; also called feline NGF (processed form identical)
# Test: SPR, Biacore T200; antibody captured on anti-feline CM5 chip, NGF as analyte; 1:1 model
# T2 sequence (A0A8I3PYI3 entry or part of it): as the sequence (A0A8I3PYI3 entry or part of it) above
Binder,Kd [nM],koff [s⁻¹],kon [M⁻¹ s⁻¹]
"felinized clone 101 (antibody, V domains shown) VH: DVQLVESGGDLVKPGGSLRLTCVASGLSLTSSSMSWVRQAPGKGLQWVSTIYSNGGTYYTDSVKGRFTISKDNAENTLYLQMNNLKTEDTATYYCASIYYYDADYLHWYFDFWGQGALVTVSS VL: EIQMTQSPTSLSASVGDRVTITCRASEGISNNLSWYQQTPGKAPKLLIYATSNLHSGVPSRFSGSGSGTDFTLTISSLQPEDFATYYCQQGYKWPLTFGGGTKLEIT [felinized clone 101, listing 1 of 2 here]",1.75,0.00138,784000
"SC-184_110-Arg (antibody, V domains shown, SC-184_110 containing the G55R mutation in VH; feline antibody captured on an anti-feline chip) VH: DVQLVESGGDLVKPGGSLRLTCVASGLSLTSASMSWVRQAPGKGLQWVSTIYSNRGTYYTDSVKGRFTISKDNAENTLYLQMNNLKTEDTATYYCASIYYYEAEYLHWYFDFWGQGALVTVSS VL: EIQMTQSPTSLSASVGDRVTITCRASEGISKNLSWYQQTPGKAPKLLIYATDNLHSGVPSRFSGSGSGTDFTLTISSLQPEDFATYYCQQGWKWPLTFGGGTKLEIT",0.142,5.48e-05,387000
"SC-184_76 (antibody, IgG1a, V domains shown) VH: DVQLVESGGDLVKPGGSLRLTCVASGLSLTSDSMSWVRQAPGKGLQWVSTLWSNGGTYYTDSVKGRFTISKDNAENTLYLQMNNLKTEDTATYYCASIYYYEADYLHWYFDFWGQGALVTVSS VL: EIQMTQSPTSLSASVGDRVTITCRASEGIANNLSWYQQTPGKAPKLLIYATSNLHSGVPSRFSGSGSGTDFTLTISSLQPEDFATYYCQQGFKWPLTFGGGTKLEIT [SC-184_76, listing 2 of 2 here]",0.472,0.000396,838000
"SC-184_102-Arg (antibody, V domains shown, SC-184_102 containing the G55R mutation in VH; feline antibody captured on an anti-feline chip) VH: DVQLVESGGDLVKPGGSLRLTCVASGLSLTSNSMSWVRQAPGKGLQWVSTIWSNRGTYYTDSVKGRFTISKDNAENTLYLQMNNLKTEDTATYYCASIYYYEAEYLHWYFDFWGQGALVTVSS VL: EIQMTQSPTSLSASVGDRVTITCRASKGISNNLSWYQQTPGKAPKLLIYAQSNLHSGVPSRFSGSGSGTDFTLTISSLQPEDFATYYCQQGYKWPLTFGGGTKLEIT",0.129,4.43e-05,343000
"AHF17602 (antibody, V domains shown, also called AIF17602) VH: DVQLVESGGDLVKPGGSLRLTCVASGLSLTSSSMVWVRQAPGKGLQWVSTIYSNRGTYYTDSVKGRFTISKDNAENTLYLQMNNLKTEDTATYYCASIYYYDADYLHWYFDFWGQGALVTVSS VL: EIQMTQSPTSLSASVGDRVTITCRASEGIANNLSWYQQTPGKAPKLLIYATSNLHSGVPSRFSGSGSGTDFTLTISSLQPEDFATYYCQQGYKWPLTFGGGTKLEIT",0.161,6.32e-05,394000
"SC-184_110 (antibody, IgG1a, V domains shown, also called SC-110) VH: DVQLVESGGDLVKPGGSLRLTCVASGLSLTSASMSWVRQAPGKGLQWVSTIYSNGGTYYTDSVKGRFTISKDNAENTLYLQMNNLKTEDTATYYCASIYYYEAEYLHWYFDFWGQGALVTVSS VL: EIQMTQSPTSLSASVGDRVTITCRASEGISKNLSWYQQTPGKAPKLLIYATDNLHSGVPSRFSGSGSGTDFTLTISSLQPEDFATYYCQQGWKWPLTFGGGTKLEIT",0.773,0.00038,492000
"SC-184_102 (antibody, IgG1a, V domains shown, also called SC-102) VH: DVQLVESGGDLVKPGGSLRLTCVASGLSLTSNSMSWVRQAPGKGLQWVSTIWSNGGTYYTDSVKGRFTISKDNAENTLYLQMNNLKTEDTATYYCASIYYYEAEYLHWYFDFWGQGALVTVSS VL: EIQMTQSPTSLSASVGDRVTITCRASKGISNNLSWYQQTPGKAPKLLIYAQSNLHSGVPSRFSGSGSGTDFTLTISSLQPEDFATYYCQQGYKWPLTFGGGTKLEIT",0.42,0.000198,471000
"SC-184_76-Arg (antibody, V domains shown, SC-184_76 containing the G55R mutation in VH; feline antibody captured on an anti-feline chip) VH: DVQLVESGGDLVKPGGSLRLTCVASGLSLTSDSMSWVRQAPGKGLQWVSTLWSNRGTYYTDSVKGRFTISKDNAENTLYLQMNNLKTEDTATYYCASIYYYEADYLHWYFDFWGQGALVTVSS VL: EIQMTQSPTSLSASVGDRVTITCRASEGIANNLSWYQQTPGKAPKLLIYATSNLHSGVPSRFSGSGSGTDFTLTISSLQPEDFATYYCQQGFKWPLTFGGGTKLEIT",0.154,9.01e-05,585000

# Target: T3, canine NGF tagged at the C-terminus with the Flag tag (canine, UniProt A0A8I3PYI3 122-241)
# T3 construct: Baculovirus expression; also called feline NGF (processed form identical)
# Test: SPR, antibody captured on goat anti-cat IgG, single cycle kinetics, NGF analyte
Binder,Kd [nM],koff [s⁻¹],kon [M⁻¹ s⁻¹]
"felinized clone 101 (antibody, V domains shown) VH: DVQLVESGGDLVKPGGSLRLTCVASGLSLTSSSMSWVRQAPGKGLQWVSTIYSNGGTYYTDSVKGRFTISKDNAENTLYLQMNNLKTEDTATYYCASIYYYDADYLHWYFDFWGQGALVTVSS VL: EIQMTQSPTSLSASVGDRVTITCRASEGISNNLSWYQQTPGKAPKLLIYATSNLHSGVPSRFSGSGSGTDFTLTISSLQPEDFATYYCQQGYKWPLTFGGGTKLEIT [felinized clone 101, listing 2 of 2 here]",7.8,0.003,380000
